Reference: US9289478B2, “Formulations of tumour-associated peptides binding to human leukocyte antigen (HLA) class I or class II molecules for vaccine” (IMMATICS BIOTECHNOLOGIES GMBH, priority 2008, dated 2016)

How the values were obtained:
Format in all cases: physicochemical
[1] = Stability of renal cell cancer vaccine test formulations at +25° C. and +40° C. by analytical HPLC assay; details: especially at +40° C.
Procedure: Various lyophilisates were tested with respect to stability of each individual peptide at +25° C. and […] using an analytical HPLC assay.
The peptides according to the SEQ ID NOs: 1 to 10 were lyophilised without any excipients and by addition of mannitol and Poloxamer 188 (LUTROL F68®) or TWEEN 80®.
The following test formulations were produced and stability were assessed at +25° C. and +40° C. by analytical HPLC assay:
Initial HPLC measurements have been performed for each formulation before storage in a climate chamber. For this purpose, the content of two vials was completely dissolved in 30% acetic acid and measured by RP-HPLC by repeat determination. To assure comparability between the individual measurements, β-Naphtyl-alanine was used as internal standard and lyophilized together with the peptides.
After 7, 14, 21, and 28 days, another two vials were removed from the climate chamber to assess stability.
Data assessment was performed by repeat determination of one vial. For one time point and temperature, two independent vials were used to obtain four data points in total. These values have been taken to calculate the standard deviation shown as error bars in the relevant diagram.

[2] = HPLC-assay for in-use stability after reconstitution with 4.2% sodium hydrogen carbonate solution (Example 2, peptides SEQ ID NO 1-10)
Procedure: Resolubilization procedure: For clinical trials the above described formulation is dissolved in 700 μl sodium hydrogen carbonate (4.2%). Remove plastic cap from one vial. Unpack and remove sodium hydrogen carbonate (4.2%) from the refrigerator at least 30 min before resolubilization to bring them up to room temperature before injection. Prepare syringe and needle for reconstitution. Use aseptic technique to take 700 μL of diluent for reconstitution of the lyophilisate. To dissolve the lyophilisate, the vial and the diluent shall be shaken vigorously for 1 minute, check whether solution is clear, otherwise continue shaking for another minute until the solution is clear. 10 to 30 minutes after GM-CSF injection, use a new syringe to administer 500 μL reconstituted formulation i.d. at the same site. Administration has to occur within 1 h after reconstitution. Dissolved lyophilisate may be stored aseptically at room temperature for up to 1 hour following reconstitution.
However, a decrease of two specific peptides, i.e. IMA-CCN-001 and IMA-RGS-001 took place (see Table 6). As these peptides contain a cysteine residue, time-depending dimerization takes place.
(§1) Identity, purity and peptide content are determined by analytical RP-HPLC chromatography. Detection wavelength was 220 nm.

[3] = HPLC-assay for stability of peptides in lyophilised formulation on storage for 3 months (Example 4); details: for stability of peptides in formulation, 1 M: 1 month; for stability of peptides in formulation, 2 M: 2 months; for stability of peptides in formulation, 3 M: 3 months
Procedure: as §1

[4] = HPLC-assay for in-use stability after reconstitution with 4.2% sodium hydrogen carbonate solution (Example 3, peptides SEQ ID NO 11-23)
Procedure: For clinical trials the above described formulation is dissolved in 700 μl sodium hydrogen carbonate (4.2%). To dissolve the lyophilisate, the vial and the diluent shall be shaken vigorously for 1 minute, check whether solution is clear, otherwise continue shaking for another minute until the solution is clear. Administration of 500 μL of the solution has to occur within 1 h after reconstitution. Dissolved lyophilisate may be stored aseptically at room temperature for up to 1 hour following reconstitution.
as §1

Row | Sequence | stability of peptides in formulation, 1 M ([3]; +5° C. +/- 3° C.) | stability of peptides in formulation, 2 M ([3]; +5° C. +/- 3° C.) | stability of peptides in formulation, 3 M ([3]; +5° C. +/- 3° C.) | stability of peptides in formulation, INITIAL ([3]; +5° C. +/- 3° C.) [%] | stability of peptides in formulation, 1 M ([3]; +25° C. +/- 2° C.) | stability of peptides in formulation, 2 M ([3]; +25° C. +/- 2° C.) | stability of peptides in formulation, 3 M ([3]; +25° C. +/- 2° C.) | stability of peptides in formulation, INITIAL ([3]; +25° C. +/- 2° C.) [%] | stability of peptides in formulation, 1 M ([3]; -20° C. +/- 5° C.) | stability of peptides in formulation, 2 M ([3]; -20° C. +/- 5° C.) | stability of peptides in formulation, 3 M ([3]; -20° C. +/- 5° C.) | stability of peptides in formulation, INITIAL ([3]; -20° C. +/- 5° C.) [%] | in-use stability, Peptide [%] ([4]; +Mannitol/Lutrol, 2h) | in-use stability, Peptide [%] ([4]; +Mannitol/Lutrol, 4h) | in-use stability, Peptide [%] ([4]; +Mannitol/Lutrol, 6h) | in-use stability, Peptide [%] ([4]; +Mannitol/Lutrol, Initial) | in-use stability, Peptide [%] ([4]; no excipients, 2h) | in-use stability, Peptide [%] ([4]; no excipients, 4h) | in-use stability, Peptide [%] ([4]; no excipients, 6h) | in-use stability, Peptide [%] ([4]; no excipients, Initial) | other results
1 | SVASTITGV (listed as Homo sapiens) [ADF-001, Adipophilin tumour-associated peptide] |  |  |  |  |  |  |  |  |  |  |  |  |  |  |  |  |  |  |  |  | peptide signal in formulations containing TWEEN 80 [1]: increase of the signal; in-use stability, peptide by HPLC-assay ([2]; +mannitol/lutrol, 1 h after reconstitution): 99.6%; in-use stability, peptide by HPLC-assay ([2]; +mannitol/lutrol, 2 h after reconstitution): 99.6%; in-use stability, peptide by HPLC-assay ([2]; +mannitol/lutrol, 3 h after reconstitution): 100.7%; in-use stability, peptide by HPLC-assay ([2]; +mannitol/lutrol, 4 h after reconstitution): 100.8%; in-use stability, peptide by HPLC-assay ([2]; +mannitol/lutrol, 5 h after reconstitution): 99.9%; in-use stability, peptide by HPLC-assay ([2]; +mannitol/lutrol, 6 h after reconstitution): 101.8%; in-use stability, peptide by HPLC-assay ([2]; +mannitol/lutrol, Initial (starting value set to 100%)): 100.0%; in-use stability, peptide by HPLC-assay ([2]; no excipients, 1 h after reconstitution): 102.4%; in-use stability, peptide by HPLC-assay ([2]; no excipients, 2 h after reconstitution): 102.4%; in-use stability, peptide by HPLC-assay ([2]; no excipients, 3 h after reconstitution): 100.0%; in-use stability, peptide by HPLC-assay ([2]; no excipients, Initial (starting value set to 100%)): 100.0%
2 | TFSYVDPVITSISPKYG (listed as Homo sapiens) [MET-005, Met proto-oncogene peptide] | 99.06 % of Initial | 97.92 % of Initial | 98.59 % of Initial | 100.0 | 97.49 % of Initial | 96.13 % of Initial | 97.21 % of Initial | 100.0 | 99.14 % of Initial | 97.54 % of Initial | 99.00 % of Initial | 100.0 | 100.5 | 100.7 | 100.4 | 100.0 | 100.3 | 100.7 | 96.0 | 100.0 | 
3 | TLGEFLKLDRERAKN (listed as Homo sapiens) [BIR-002, Baculoviral IAP repeat-containing 5 (survivin) peptide] | 98.53 % of Initial | 97.28 % of Initial | 100.01 % of Initial | 100.0 | 97.49 % of Initial | 96.24 % of Initial | 98.93 % of Initial | 100.0 | 98.43 % of Initial | 96.98 % of Initial | 100.14 % of Initial | 100.0 | 100.8 | 101.2 | 100.9 | 100.0 | 100.6 | 101.4 | 96.2 | 100.0 | 
4 | TMLARLASA (listed as Homo sapiens) [CSP-001, Chondroitin sulfate proteoglycan 4 peptide] | 98.99 % of Initial | 98.05 % of Initial | 99.81 % of Initial | 100.0 | 98.04 % of Initial | 96.99 % of Initial | 98.71 % of Initial | 100.0 | 98.99 % of Initial | 97.61 % of Initial | 99.61 % of Initial | 100.0 | 100.0 | 100.1 | 99.6 | 100.0 | 99.2 | 99.7 | 95.0 | 100.0 | 
